Reference: patent US20220332804A1 (CSL INNOVATION, published 2022)
Residue numbers refer to the chain shown, from its start.

Experiments:
Assay in all cases: SPR, KD relative to WT C2;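 note: biacore SPR at 37 °C, anti-C2 mAbs captured via immobilised goat anti-human IgG, C2 alanine or serine surface mutants as analytes, 1:1 model fitted, double-referenced sensograms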
[1] = target: T1, human C2 K715A (human, UniProt P06681 21-752)
T1 sequence: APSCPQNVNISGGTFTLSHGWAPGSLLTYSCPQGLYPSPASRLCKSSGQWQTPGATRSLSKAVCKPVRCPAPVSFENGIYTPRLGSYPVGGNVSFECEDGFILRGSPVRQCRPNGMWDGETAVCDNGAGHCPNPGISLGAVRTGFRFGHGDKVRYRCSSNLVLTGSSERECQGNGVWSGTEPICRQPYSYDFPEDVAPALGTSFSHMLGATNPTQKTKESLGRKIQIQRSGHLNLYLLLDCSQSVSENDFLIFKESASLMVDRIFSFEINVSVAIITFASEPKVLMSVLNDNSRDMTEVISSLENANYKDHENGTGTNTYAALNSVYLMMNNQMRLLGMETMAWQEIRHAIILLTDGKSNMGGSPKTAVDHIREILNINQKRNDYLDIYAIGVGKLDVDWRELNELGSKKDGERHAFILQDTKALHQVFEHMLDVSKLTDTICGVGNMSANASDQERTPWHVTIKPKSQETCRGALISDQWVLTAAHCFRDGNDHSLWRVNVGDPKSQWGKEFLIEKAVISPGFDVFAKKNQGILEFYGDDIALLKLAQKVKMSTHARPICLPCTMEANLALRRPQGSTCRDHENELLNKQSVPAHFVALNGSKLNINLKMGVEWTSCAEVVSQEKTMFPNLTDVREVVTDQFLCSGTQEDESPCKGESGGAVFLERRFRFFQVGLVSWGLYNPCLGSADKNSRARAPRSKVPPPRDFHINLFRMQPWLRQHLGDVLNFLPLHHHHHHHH

[2] = target: T2, human C2 K721A (human, UniProt P06681 21-752)
T2 sequence: T1 sequence with A695K, K701A

[3] = target: T3, human C2 F437A (human, UniProt P06681 21-752)
T3 sequence: T1 sequence with F417A, A695K

[4] = target: T4, human C2 S456A (human, UniProt P06681 21-752)
T4 sequence: T1 sequence with S436A, A695K

B1: RF16-226 (antibody, human IgG4 S228P, lambda)
heavy: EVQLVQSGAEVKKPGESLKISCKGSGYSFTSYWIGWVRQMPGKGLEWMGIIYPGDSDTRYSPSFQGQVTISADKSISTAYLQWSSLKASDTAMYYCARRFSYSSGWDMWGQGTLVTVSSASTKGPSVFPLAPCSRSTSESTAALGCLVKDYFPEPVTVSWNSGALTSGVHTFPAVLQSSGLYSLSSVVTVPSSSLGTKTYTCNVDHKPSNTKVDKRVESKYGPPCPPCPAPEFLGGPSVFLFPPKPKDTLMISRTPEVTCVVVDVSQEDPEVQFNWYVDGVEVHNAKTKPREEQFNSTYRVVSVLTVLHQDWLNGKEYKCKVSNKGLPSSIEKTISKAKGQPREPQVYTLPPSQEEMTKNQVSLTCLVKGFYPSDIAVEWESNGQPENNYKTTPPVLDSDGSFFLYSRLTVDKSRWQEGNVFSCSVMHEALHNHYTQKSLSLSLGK
light: SYELTQPPSVSVSPGQTARITCSGDALTSKYVAWYQQKSGLAPLLVIYEDTRRPSGIPAKFSGSSSGSVATLTISGAHGDDEADYYCYSTDASGHQRVFGGGTKLTVLSQPKAAPSVTLFPPSSEELQANKATLVCLISDFYPGAVTVAWKADGSPVKAGVETTKPSKQSNNKYAASSYLSLTPEQWKSHRSYSCQVTHEGSTVEKTVAPTECS
notes: pH-dependent anti-C2 antibody from a phage display library; also called WT
Question: B1 was tested. Which Fold diff [1] did it give?
Answer: The Fold diff was 2 fold.

Question: And the Fold diff [2]?
Answer: Its Fold diff is 10 fold.

Question: What about the Fold diff [3] of the same binder?
Answer: The Fold diff was 26 fold.

Question: What about the Fold diff [4] of the same binder?
Answer: Its Fold diff is 7 fold.
